These results are taken from article PMC10602907.

For this test, the target named is FgSreA, 6xHis-tagged recombinant protein (Fusarium graminearum PH-1). In words: MST. The following applies: natural protein.

As usually defined, the EC50 is the concentration needed to bring the measured effect to its halfway point. The term Kd denotes the equilibrium constant for the complex coming apart.

“FgGrx4, 6xHis-tagged recombinant protein”: the EC50 was determined as 17.7 µM and the Kd was determined as 0.0001 µM.
